These results are taken from paper PMC10863865 (PLOS Pathogens, 2024).

The target of assay [1] is Gc protein in CCHFV-YL16070-infected Vero E6 cells (Crimean-Congo hemorrhagic fever virus, …, strain). Description: western blot. The settings on record: one partner purified. Background: In western blotting, separated proteins are transferred to a membrane and probed.
Assay [2] deals with T1, sGc-S-tag (Gc ectodomain of CCHFV-YL16070 with an S-tag) (Crimean-Congo hemorrhagic fever virus, …, strain, biotin (labelled for BLI)).
T1 construct: not shown: S-tag, N-terminal, kept
Description: BLI; […] (25 ug/mL), […]; PBS with 0.1% BSA and 0.02% Tween-20; association 600 s, dissociation 600 s; Octet-Red 96. The settings on record: both partners purified. Background: BLI is a label-free optical method that tracks binding on a fibre tip over time.

B1: Gc13 monoclonal antibody (antibody, V domains shown)
VH: QVQLQQSGPEVVRPGVSVKISCKGSGYTFTDYATHWVKQSHVKSLEWIGVISTYNGETDCNQKFKGKATMTVDKSSSTAYMELARLTSEDSAIYYCANGYYQAMDYWGQGTSVTVSS
VL: DIQMTQTPSSLSASLGDRVTISCRASQDISNYLNWYQQRPDGTLKLLIYYTSRLHSGVPSRFSGSGSGTDYSLTISNLEQEDIATYFCQQGSTLPWTFGGGTKLEIK
notes: also called mAb Gc13; copies: 2 + 2
B1: in assay [1], the binding result is given as “binds”. Also, binding in assay [2] was characterised by a dissociation constant (Kd) of 0.0324 nM.

B2: Gc8 monoclonal antibody (antibody, V domains shown)
VH: QVQLQQPGAEVVKPGASVKMSCKASGYTFTSYSMHWVKQTPGQGLEWIGAIYPGNGDTSYNQKFKGKATLTADKSSSTAYMQLSSLTSEDSAGYYCARGDQYYGYFDFWGQGTTLTVSS
VL: DIQMTQSPASLSASVGETVTITCRTSENIYSFLAWYQQKQGKSPQRLVSHAKALAEGVPSRFSGSGTGTQFSLKINSLQPEDFGSYYCQHHYGIPLTFGAGTKLELK
notes: also called mAb Gc8; copies: 2 + 2
Turning to B2, the binding result in assay [1] was “binds”. Further, in assay [2], binding was put at a Kd of 0.0834 nM.
